Results on one variant are retold here after IntAct's records for PubMed 35512704.

To fix the notation:
B1: Speckle-type POZ protein (Homo sapiens), O43791 (parent)
chain: MSRVPSPPPPAEMSSGPVAESWCYTQIKVVKFSYMWTINNFSFCREEMGEVIKSSTFSSGANDKLKWCLRVNPKGLDEESKDYLSLYLLLVSCPKSEVRAKFKFSILNAKGEETKAMESQRAYRFVQGKDWGFKKFIRRDFLLDEANGLLPDDKLTLFCEVSVVQDSVNISGQNTMNMVKVPECRLADELGGLWENSRFTDCCLCVAGQEFQAHKAILAARSPVFSAMFEHEMEESKKNRVEINDVEPEVFKEMMCFIYTGKAPNLDKMADDLLAAADKYALERLKVMCEDALCSNLSVENAAEILILADLHSADQLKTQAVDFINYHASDVLETSGWKSMVVSHPHLVAEAYRSLASAQCPFLGPPRKRLKQS

Variants of B1 are the subject of the first experiment. The settings on record: with gata1_human GATA1, P15976.
gata1_human GATA1, P15976, sequence (P15976 whole entry): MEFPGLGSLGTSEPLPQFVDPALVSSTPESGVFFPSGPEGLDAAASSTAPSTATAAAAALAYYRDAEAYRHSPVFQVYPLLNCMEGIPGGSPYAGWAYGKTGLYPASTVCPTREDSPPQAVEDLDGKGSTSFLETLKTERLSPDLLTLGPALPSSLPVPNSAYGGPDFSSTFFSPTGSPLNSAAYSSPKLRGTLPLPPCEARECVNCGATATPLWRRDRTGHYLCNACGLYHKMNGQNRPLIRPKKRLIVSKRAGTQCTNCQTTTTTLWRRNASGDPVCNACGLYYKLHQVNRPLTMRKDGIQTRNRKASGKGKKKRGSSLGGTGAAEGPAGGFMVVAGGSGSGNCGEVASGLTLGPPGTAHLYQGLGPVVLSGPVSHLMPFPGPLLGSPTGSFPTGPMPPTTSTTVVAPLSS
Turning to MSRVPSPPPPAEMSSGPVAESWCYTQIKVVKFSYMWTINNFSFCREEMGEVIKSSTFSSGANDKLKWCLRVNPKGLDEESKDYLSLYLLLVSCPKSEVRAKFKFSILNAKGEETKAMESQRAYRFVQGKDWGLKKFIRRDFLLDEANGLLPDDKLTLFCEVSVVQDSVNISGQNTMNMVKVPECRLADELGGLWENSRFTDCCLCVAGQEFQAHKAILAARSPVFSAMFEHEMEESKKNRVEINDVEPEVFKEMMCFIYTGKAPNLDKMADDLLAAADKYALERLKVMCEDALCSNLSVENAAEILILADLHSADQLKTQAVDFINYHASDVLETSGWKSMVVSHPHLVAEAYRSLASAQCPFLGPPRKRLKQS [F133L], the “effect of a mutation on the interaction” value is recorded as “increasing interaction strength”.

Variants of B1 are the subject of another experiment. To be noted: with igf1r_human IGF1R.
Turning to MSRVPSPPPPAEMSSGPVAESWCYTQIKVVKFSYMWTINNFSFCREEMGEVIKSSTFSSGANDKLKWCLRVNPKGLDEESKDYLSLYLLLVSCPKSEVRAKFKFSILNAKGEETKAMESQRAYRFVQGKDWGLKKFIRRDFLLDEANGLLPDDKLTLFCEVSVVQDSVNISGQNTMNMVKVPECRLADELGGLWENSRFTDCCLCVAGQEFQAHKAILAARSPVFSAMFEHEMEESKKNRVEINDVEPEVFKEMMCFIYTGKAPNLDKMADDLLAAADKYALERLKVMCEDALCSNLSVENAAEILILADLHSADQLKTQAVDFINYHASDVLETSGWKSMVVSHPHLVAEAYRSLASAQCPFLGPPRKRLKQS [F133L], the “effect of a mutation on the interaction” value is “increasing interaction strength”.

In a further experiment the parent is B1. The settings on record: with esr1_human ESR1, P03372.
esr1_human ESR1, P03372, sequence (P03372 whole entry): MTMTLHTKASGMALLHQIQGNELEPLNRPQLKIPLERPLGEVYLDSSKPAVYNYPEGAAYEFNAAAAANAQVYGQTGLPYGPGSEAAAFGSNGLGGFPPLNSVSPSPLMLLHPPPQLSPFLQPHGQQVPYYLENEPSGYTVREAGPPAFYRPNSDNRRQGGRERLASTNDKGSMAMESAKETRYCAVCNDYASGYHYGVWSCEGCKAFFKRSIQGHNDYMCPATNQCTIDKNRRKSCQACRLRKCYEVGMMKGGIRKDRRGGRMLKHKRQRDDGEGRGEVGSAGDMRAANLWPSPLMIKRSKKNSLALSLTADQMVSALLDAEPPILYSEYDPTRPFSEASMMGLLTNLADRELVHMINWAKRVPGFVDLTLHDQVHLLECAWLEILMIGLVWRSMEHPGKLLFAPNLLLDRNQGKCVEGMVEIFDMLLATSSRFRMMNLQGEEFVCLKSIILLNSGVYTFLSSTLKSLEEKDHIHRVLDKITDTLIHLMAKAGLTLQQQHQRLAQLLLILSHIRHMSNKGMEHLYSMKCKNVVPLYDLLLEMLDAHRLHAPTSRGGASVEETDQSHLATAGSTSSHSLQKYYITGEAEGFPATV
MSRVPSPPPPAEMSSGPVAESWCYTQIKVVKFSYMWTINNFSFCREEMGEVIKSSTFSSGANDKLKWCLRVNPKGLDEESKDYLSLYLLLVSCPKSEVRAKFKFSILNAKGEETKAMESQRAYRFVQGKDWGLKKFIRRDFLLDEANGLLPDDKLTLFCEVSVVQDSVNISGQNTMNMVKVPECRLADELGGLWENSRFTDCCLCVAGQEFQAHKAILAARSPVFSAMFEHEMEESKKNRVEINDVEPEVFKEMMCFIYTGKAPNLDKMADDLLAAADKYALERLKVMCEDALCSNLSVENAAEILILADLHSADQLKTQAVDFINYHASDVLETSGWKSMVVSHPHLVAEAYRSLASAQCPFLGPPRKRLKQS [F133L]: the “effect of a mutation on the interaction” value is “decreasing interaction strength”.
